Data reported in US20240124607A1.

Molecular target: human CEACAM5 on cells (human) (UniProt P06731)
Assay: flow cytometry, hCEACAM5-B16F10 cells

Chain of human CEACAM5 on cells (human) (P06731 35-685 limits assumed): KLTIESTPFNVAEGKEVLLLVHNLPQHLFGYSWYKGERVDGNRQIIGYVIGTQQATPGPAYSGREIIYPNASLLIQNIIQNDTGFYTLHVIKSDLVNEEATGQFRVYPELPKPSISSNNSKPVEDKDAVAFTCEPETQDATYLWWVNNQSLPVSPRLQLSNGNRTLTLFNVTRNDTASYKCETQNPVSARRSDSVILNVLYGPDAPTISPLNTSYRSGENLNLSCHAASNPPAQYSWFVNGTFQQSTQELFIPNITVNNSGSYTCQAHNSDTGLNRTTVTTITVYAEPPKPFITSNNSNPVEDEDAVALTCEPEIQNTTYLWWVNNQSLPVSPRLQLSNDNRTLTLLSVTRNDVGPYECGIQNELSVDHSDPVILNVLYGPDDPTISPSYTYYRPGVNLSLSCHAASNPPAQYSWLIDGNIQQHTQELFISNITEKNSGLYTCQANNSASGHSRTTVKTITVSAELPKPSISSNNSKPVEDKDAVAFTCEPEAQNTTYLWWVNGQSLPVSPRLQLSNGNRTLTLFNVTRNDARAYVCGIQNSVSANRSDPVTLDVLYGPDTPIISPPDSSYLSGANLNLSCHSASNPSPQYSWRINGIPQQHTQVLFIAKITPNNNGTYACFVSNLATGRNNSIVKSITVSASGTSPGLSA

EC50: 21.8 nM
B1: mAB0621 mouse surrogate duobody TriNKET (bispecific antibody, part only; not given: NKG2D arm, mouse constant regions, V domains shown, part only)
VH: QVQLVQSGAEVKKPGASVKVSCKASGYTFTAYTIHWVRQAPGQCLEWMGYINPSSGYTEYNQKFKDRTTLTADTSISTAYMELSRLRSDDTAVYYCTREGGLLWFDYWGQGTLVTVSS
VL: DIVMTQSPDSLAVSLGERATINCKSSHSLLYGNFQNNYLAWYQQKPGQPPKLLIYWASTRESGVPDRFSGSGSGTDFTLTISSLQAEDVAVYYCQQYYSYPYTFGCGTKLEIK
